According to patent publication US20050260177A1:

Columns and labels:
[1] = target: Ra12 protein (Mycobacterium tuberculosis); assay: ELISA, Ra12 on plate, serum 1:128000, well 1
[2] = target: Ra12 protein (Mycobacterium tuberculosis); assay: ELISA, Ra12 on plate, serum 1:4000, well 2
[3] = target: Ra12 protein (Mycobacterium tuberculosis); assay: ELISA, Ra12 on plate, serum 1:1024000, well 1
[4] = target: Ra12 protein (Mycobacterium tuberculosis); assay: ELISA, Ra12 on plate, serum 1:64000, average of 2 wells
[5] = target: Ra12 protein (Mycobacterium tuberculosis); assay: ELISA, Ra12 on plate, serum 1:16000, average of 2 wells
[6] = target: Ra12 protein (Mycobacterium tuberculosis); assay: ELISA, Ra12 on plate, serum 1:2000, well 1
[7] = target: Ra12 protein (Mycobacterium tuberculosis); assay: ELISA, Ra12 on plate, serum 1:512000, average of 2 wells
[8] = target: Ra12 protein (Mycobacterium tuberculosis); assay: ELISA, Ra12 on plate, serum 1:1024000, average of 2 wells
[9] = target: Ra12 protein (Mycobacterium tuberculosis); assay: ELISA, Ra12 on plate, serum 1:64000, well 2
[10] = target: Ra12 protein (Mycobacterium tuberculosis); assay: ELISA, Ra12 on plate, serum 1:16000, well 2
[11] = target: Ra12 protein (Mycobacterium tuberculosis); assay: ELISA, Ra12 on plate, serum 1:32000, average of 2 wells
[12] = target: Ra12 protein (Mycobacterium tuberculosis); assay: ELISA, Ra12 on plate, serum 1:128000, average of 2 wells
[13] = target: Ra12 protein (Mycobacterium tuberculosis); assay: ELISA, Ra12 on plate, serum 1:256000, well 2
[14] = target: Ra12 protein (Mycobacterium tuberculosis); assay: ELISA, Ra12 on plate, serum 1:4000, average of 2 wells
[15] = target: Ra12 protein (Mycobacterium tuberculosis); assay: ELISA, Ra12 on plate, serum 1:8000, well 2
[16] = target: Ra12 protein (Mycobacterium tuberculosis); assay: ELISA, Ra12 on plate, serum 1:32000, well 2
[17] = target: Ra12 protein (Mycobacterium tuberculosis); assay: ELISA, Ra12 on plate, serum 1:32000, well 1
[18] = target: Ra12 protein (Mycobacterium tuberculosis); assay: ELISA, Ra12 on plate, serum 1:1024000, well 2
[19] = target: Ra12 protein (Mycobacterium tuberculosis); assay: ELISA, Ra12 on plate, serum 1:128000, well 2
[20] = target: Ra12 protein (Mycobacterium tuberculosis); assay: ELISA, Ra12 on plate, serum 1:8000, well 1
[21] = target: Ra12 protein (Mycobacterium tuberculosis); assay: ELISA, Ra12 on plate, serum 1:512000, well 2
[22] = target: Ra12 protein (Mycobacterium tuberculosis); assay: ELISA, Ra12 on plate, serum 1:2000, well 2
[23] = target: Ra12 protein (Mycobacterium tuberculosis); assay: ELISA, Ra12 on plate, serum 1:4000, well 1
[24] = target: Ra12 protein (Mycobacterium tuberculosis); assay: ELISA, Ra12 on plate, serum 1:8000, average of 2 wells
[25] = target: Ra12 protein (Mycobacterium tuberculosis); assay: ELISA, Ra12 on plate, serum 1:16000, well 1
[26] = target: Ra12 protein (Mycobacterium tuberculosis); assay: ELISA, Ra12 on plate, serum 1:64000, well 1
[27] = target: Ra12 protein (Mycobacterium tuberculosis); assay: ELISA, Ra12 on plate, serum 1:512000, well 1
[28] = target: Ra12 protein (Mycobacterium tuberculosis); assay: ELISA, Ra12 on plate, serum 1:256000, average of 2 wells
[29] = target: Ra12 protein (Mycobacterium tuberculosis); assay: ELISA, Ra12 on plate, serum 1:1000, well 2
[30] = target: Ra12 protein (Mycobacterium tuberculosis); assay: ELISA, Ra12 on plate, serum 1:2000, average of 2 wells
[31] = target: Ra12 protein (Mycobacterium tuberculosis); assay: ELISA, Ra12 on plate, serum 1:256000, well 1
[32] = target: Ra12 protein (Mycobacterium tuberculosis); assay: ELISA, Ra12 on plate, serum 1:1000, well 1
[33] = target: Ra12 protein (Mycobacterium tuberculosis); assay: ELISA, Ra12 on plate, serum 1:1000, average of 2 wells

Preimmune sera (antibody) gave an ELISA absorbance at 450 nm [1] of 0.15 OD450, an ELISA absorbance at 450 nm [2] of 0.15 OD450 and an ELISA absorbance at 450 nm [3] of 0.16 OD450. For the same substance, the ELISA absorbance at 450 nm [4] was 0.13 OD450, the ELISA absorbance at 450 nm [5] was 0.15 OD450 and the ELISA absorbance at 450 nm [6] was 0.15 OD450. For the same substance, the ELISA absorbance at 450 nm [7] was 0.16 OD450, the ELISA absorbance at 450 nm [8] was 0.16 OD450 and the ELISA absorbance at 450 nm [9] was 0.13 OD450. The ELISA absorbance at 450 nm [10] was 0.14 OD450, the ELISA absorbance at 450 nm [11] was 0.14 OD450 and the ELISA absorbance at 450 nm [12] was 0.14 OD450. The ELISA absorbance at 450 nm [13] was 0.15 OD450, the ELISA absorbance at 450 nm [14] was 0.15 OD450 and the ELISA absorbance at 450 nm [15] was 0.15 OD450. The ELISA absorbance at 450 nm [16] was 0.13 OD450, the ELISA absorbance at 450 nm [17] was 0.14 OD450 and the ELISA absorbance at 450 nm [18] was 0.16 OD450. The ELISA absorbance at 450 nm [19] was 0.14 OD450, the ELISA absorbance at 450 nm [20] was 0.15 OD450 and the ELISA absorbance at 450 nm [21] was 0.16 OD450. For the same substance, the ELISA absorbance at 450 nm [22] was 0.17 OD450, the ELISA absorbance at 450 nm [23] was 0.15 OD450 and the ELISA absorbance at 450 nm [24] was 0.15 OD450. The ELISA absorbance at 450 nm [25] was 0.15 OD450, the ELISA absorbance at 450 nm [26] was 0.14 OD450 and the ELISA absorbance at 450 nm [27] was 0.16 OD450. The ELISA absorbance at 450 nm [28] was 0.15 OD450, the ELISA absorbance at 450 nm [29] was 0.18 OD450 and the ELISA absorbance at 450 nm [30] was 0.16 OD450. For the same substance, the ELISA absorbance at 450 nm [31] was 0.15 OD450, the ELISA absorbance at 450 nm [32] was 0.18 OD450 and the ELISA absorbance at 450 nm [33] was 0.18 OD450.
